# Measured values published in patent US20150351390A1, “COMPOSITIONS AND METHODS FOR AUXIN-ANALOG CONJUGATION” (PIONEER HI-BRED INTERNATIONAL, INC., priority 2012, published 2015).
# B1: GmGH3-15: GH3 protein, accession XP_003540050.1 (protein)
# chain: MPEAPRDYNLFEQNKKTLEFIEDVTANADQVQKRVLSEILSNNANVEYLKRHDLHGQTDRETFKKLLPVITYEDIQPDINRIANGDTSPILCSKPISEFLTSSGTSGGERKLMPTIEEELGRRSLLYSLLMPVMSQFVPGLEKGKGMYLMFIKSEAKTPGGIVARPVLTSYYKSSYFKDRPYDPYTNYTSPNETVLCPDSYQSMYSQLLCGLCQHKEVLRVGAVFASGFIRAIRFLEKHWPLLCHDIRTGTINNTITDLSVRDAVMKILKPDPRLGDLIQSECGKSSWQGIITRLWPNTKYVDVIVTGTMSQYIPTLDYYSNGLPLVCTMYASSECYFGVNLNPLCKPSEVSYTLIPTMCYYEFLPVNRSNGVSHDSLHTPRSLNEKEQQELVELVDVKLGQEYELVVTTYAGLYRYRVGDVLRVAGFKNKAPQFNFVCRKNVVLSIDSDKTDEVELQNAMKNAVTHLVPFDASVSEYTSYADTTTIPGHYVLYWELSLKGSTPIPPCVFEDCCLAIEESLNSVYRQGRVSDKSIGPLEIKIVEQGTFDKLMDYAISLGASINQYKTPRCVKFAPVVELLNSRVVEKYFSPKCPKWVPGHKQWINQN
# modifications: Glycine max
# B2: GmGH3-10: GH3 protein, accession XP_003541929.1 (protein)
# chain: MPEAPKHLCHDPKDNLDDDDDDGSSNNNKRALEYIEEVTTNADEIQEKVLAQILSRSANAEYLQRHGLEGRTDRNTFKNIMPVVTYEDLKPDIDRIANGDTSPILCSKPISEFLTSSGTSGGERKLMPTIEEELERRSMLYSLLMPVMDQFVPDLDKGKGMYFLFTKSEAKTPGGLLARPVLTSYYKSSHFKHRKHDPYTNYTSPNETILCHDSYQSMYSQLLCGLYQNEEVLRVGAVFASGFIRALKFLEKHFVCLCNDIRTGTLDAKITDPSVREAVMKVLKPNPTLADFVETECMKGSWKGIITRIWPNTKYVDVIVTGTMSQYIPILDYYSNGLPLVCTMYASSECYFGLNLNPSCDPSEVAYTLIPTMAYFEFLPLDEINGHTNSISQLEQEHLVDLADVKLGQEYELVVTTYAGLYRYRVGDILRVAGFKNKAPQFNFVCRKNVVLSIDSDKTDEVELHNAVKSGAEQLAEFNASLTEYTSCVDTSTIPGHYVLYWEISTNDHTPTIPSSVFGHCCLSIEESLNSVYRQGRVSESIGPLEIKVVENGTFDKLMDFALSQGASINQYKTPRCVTYAPILDLLNSKVLSSYISPKCPNWVPGHKDWCTLH
# modifications: Glycine max
# B3: GmGH3-14: GH3 protein, accession XP_003516612.1 (protein)
# chain: MRPYPYVFPGPHVLPAKSTTEVVLIFCPLRYPGPLPLSFPFILSILILPSLIMALQFIEQVTKNTDSVQERVLSEILTQNAETEYLKRFALNGATDRDTFKSKVPVVTYEDLQPDIERIANGDRSPILCAHPISEFLTSSGTSAGERKLMPTIHEEMDRRQLLYSLLMPVMNQYVSDLDKGKALHFLFIKAEAKTPGGLMARPVLTSYYKSEQFRKRPFDPYNVLTSPNEAILCPDSFQSMYTQMLCGLIMRHEVLRVGAVFASGLLRAIRFLQLNWEQLSHDILTGTLNPKITEPSIKERMSKILKPDPELAAFIKSECSGENWERIIVRIWPNTKYLDVIVTGAMAQYIPTLDYYSGGLPKPCTMYASSECFFGLNLKPMSEPSDVSYTILPNMGYFEFLPHDDSSPITLSKDSPPRLVELADVELGKYYELIITTYAGLCRYRVGDILQVTGFHNSDPQFRFVRRKNVLLSIDSDKTDESELQKAVENASELLKEFNTSVAEYTSFADTKSIPGHYVIYWELMMKDSSHPPTNQVLNQCCLVMEESLNSVYRQGRVADNSIGPLEIRVVKNGTFEELMDYAISRGASINQYKVPRCVSFTPIMELLDSRVLSFHFSPAAPHWTPERRR
# modifications: Glycine max
# B4: BjACC38383.1: GH3 protein, accession ACC38383.1 (protein, listed as Brassica juncea)
# chain: MIIISYYNEEEKGKVLEDLTWNVKQIQDDLLKEILTLNSGTEYLQNFLHGSSAKELFKKNLPIVTYKDVKPYIDRVANGESSNIISTLPITNFFNSSGTSGGANKILPSNSKYLDGSAFSTDLLAHVIRKHVKGVERGKGMLFFLTGHDTKTPGGFPIEDGISWYLKSDYFKNRPSTWFYSYTSPDEVMLGSDLKENLYCHLLCGLVQRDEVTRIGSTFASGMVRVIKVLEDSWKELCSNIRSGNLSEWITDSGCRNSVSLVLGGQPRHKLSDEIESICSQKSWKGIMKKLWPQTLCIEAIATGSMAQYVPTLKHYSGDVPLVSTIYASSESMFGINTDPLCQPENTSYTLMPNISYFEFIPTEGGNGDVVDLADVKLGCSYQLLVTNLWGLYRMRIGDIVKVTGFHNKAPKFRVIGRENTLLSIDTDRTTEEYLLKAVNRARLVLESSDLRLVAFTSYADISSSPGHYVIYWEVKTKEEDMKELDEKTFLECCSVMEDTLDEEYMYCRANEFIGPLEIRVVNDGTFDSLMNLSISKGASITQYKYWRQMWLLDSSVLSEHLMCLSHDIWSKKRGRNVCVLSVLSWFLLTIF
# B5: Br040953: GH3 protein, Bra040953 (protein, listed as Brassica rapa)
# chain: MMIPSYDPNDTEAGLQLLEDLTTNADAIQQQVLHQILSQNSETEYLRSFLDGESCNIQENFKNKAPVVNYEDIKPFIQRISDGDSSDILSAQPITELLTSSGTSGGKPKFMPSTAEELDRKTFFYNMLVPVMNKFVNGLDEGKGMYLLFIKPEIKTPSGLQARPVLTSYYKSEQFKNRPFNKYNVITSPNDAILCEDSQQSMYCQLLCGLVQRSDVLRLGAIFASAFLRAVKFLENHFTELCADIRTGTVASWITDSGCRDSVLSILNGPNQELADEIEALFNAKSREGILKRIWPKTKYIEVIVTGSMAQYIPTLEFYSGGLPLVSVMYASSECFFGLNINPLCKPSDVSYTLLPNMAYFEFLPVDDKSHEETHLESRSTDDVSLTDKDRIVDLVSVEIGRYYELIITTFAGLYRYRVGDILKVTGFHNKAPQFSFVERRNVVLSIDTDKTSEEDLMKAVTQAKLNHLQGLFLLTEYTSYADTSSIPGHYVLFWELKPRYDNDPPKLDKKMMEDCCSEVEDCLDYVYRRCRNKDRSIGALEIRVVSLGTFDALMDFSISQGSSVNQYKTPRCVKSGGALQILDSRVIGRFFTKRVPQWEPLGLDS
# B6: Gm03g30590.1: GH3 protein, Glyma03g30590.1 (protein)
# chain: MMTDEELLQKLEDLTKNAQHHHLETLRSILLHNGIVHYLQSFKKGSLLHLDPSTFARVVPLSTYEDYVDYINQMAEGKDDPFLSVDPLRCFFYSSGTSSSTMKPKLIPYFDSSLSKAASFIGHRGSVAVRQRLFPPRPEVNKILWFLYADNITTTKCGLKVMAASTYPLQSGNATPQQLAAFSSPLEVILATNVENQMYCHLLCGLRNLDLIDGIATPYAIGLIKAFGFLESKWEQLCDDLDHGFPCNEISEGAMREAVTNTLGGPQPELANRIRLICEGNNWGGIVYRLWPNIRYIRCVTTGSMKQYYQKLKYYAGEVPILGGDYFASECCVGLNLDIMQPPETTRFVMLPTFAYFEFLPFNINEDNDASKEAVDYSSVEVGKMYEVVVTTYRGYYRYRLGDIVRVVGFYNSSPLVEYVMRAPKTPAEIVTEKDLISAVENFQLALRGAMRIEIVEFASFLDQESMPKQLKVFVEVQEESDFLEDKLEESVRVLRSCISSLESGLGAIYKVQKDKGQLRSLRIFIIRPGAFDQLSELAIKNGTSASQYKPPKIIRNHEVVKLLEKLAFVAVSFDG
# modifications: Glycine max
# Legend:
# Assay type in all cases: biochemical
# [1] = LC-MS assay of GH3 conjugation of IAA with Asp or Glu; conditions: LC-MS; for Detected auxin conjugates: IAA-Asp: IAA with Asp; for Detected auxin conjugates: IAA-Glu: IAA with Glu
# Outline: (§1)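 Rxn: 20 mM Tris-HCl pH 8.0, 5 mM MgCl2, 1 mM DTT, 5 mM ATP, 5 mM auxin, 5 mM Asp/Glu, 44–164 μg/mL purified His-GH3; 30° C., 3 h. MeOH quench, supernatant diluted 20×, LC-MS vs conjugate standards.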
# [2] = LC-MS assay of GH3 conjugation of 2,4-D with Asp or Glu; conditions: LC-MS; for Detected auxin conjugates: 2,4-D-Asp: 2,4-D with Asp; for Detected auxin conjugates: 2,4-D-Glu: 2,4-D with Glu
# Outline: as §1
# [3] = LC-MS assay of GH3 conjugation of dicamba with Asp or Glu; conditions: LC-MS; for Detected auxin conjugates: Dicamba-Asp: dicamba with Asp; for Detected auxin conjugates: Dicamba-Glu: dicamba with Glu
# Protocol: To detect and monitor the formation of acyl conjugates with 2,4-D or dicamba, a sensitive LC-MS method was developed using the respective amino acid conjugate standards. […] […] […] The supernatant was diluted 20× in water and then analyzed by LC-MS (AB Sciex 4000 QTrap coupled with Shimadzu Nexera UHPLC) using a Phenomenex Luna 3 μm Phenyl-Hexyl (00B-4256-Y0) column. The concentration of the conjugates was calculated based on the standards. Kinetic parameters were estimated by fitting initial velocity values to the Michaelis-Menten equation.
# The GH3 superfamily conjugase activity analysis of IAA, 2,4-D or dicamba with Asp or Glu was done using LC-MS to analyze the final conjugate products as described in Example 1. Protein sequences of GH3 homologs (Table 3) were obtained from public databases (NCBI, http://www.ncbi.nlm.nih.gov/) by Blast analysis of AtGH3.17 protein sequence (accession # Q9FZ87). Coding sequences were designed for optimal expression in E. coli based on the protein sequences and synthesized. Synthesized coding sequences along with N-term his-tag coding sequences were cloned into a pET24a-based E. coli expression vector. The E. coli expression vectors were transformed into OverExpress C41(DE3) cells (Lucigen) for protein expression. Recombinant E. coli strains were inoculated into 5 ml LB media supplemented with 40 mg/L kanamycin and cultured overnight at 37° C. The overnight culture (0.5 mL) was inoculated into 50 mL LB medium plus 40 mg/L kanamycin and grown at 30° C. until OD600 reached 0.6. The cultures were induced with 0.2 mM IPTG at 16° C., 230 rpm overnight. Cells were harvested by centrifugation at 7,000 rpm for 10 mins. The cell pellet from 50 mL of cell culture was frozen and thawed twice and then lysed in 800 μL lysis buffer A (150 mM NaCl, 50 mM Tris-HCl pH 8.0, 5 mM MgCl2, 10% glycerol) plus 20 mM imidazole, 1 mM DTT, 0.2 mg/ml lysozyme, 1/200 protease inhibitor cocktail (EMD set3, EDTA free) and 1/2000 endonuclease. Lysate was then centrifuged at 13,000 rpm for 30 min at 4° C. Supernatant was loaded onto 200 μL Ni-NTA columns pre-equilibrated with buffer A with 20 mM imidazole at 4° C. Each column was then washed with (1) 2×800 μL of buffer A with 10 mM imidazole, (2) 2×800 μL of buffer A with 20 mM imidazole and (3) 2×200 μL of buffer A with 50 mM imidazole. Protein was eluted with 200 μL of buffer A with 250 mM imidazole. The concentration was measured by Bradford assay. Purified protein was used in conjugation reaction assays as described in example 1.
molecule,measurement,setting,value
B1,Detected auxin conjugates: IAA-Asp,[1],Yes
same,Detected auxin conjugates: IAA-Glu,[1],Yes
same,"Detected auxin conjugates: 2,4-D-Asp",[2],Yes
same,"Detected auxin conjugates: 2,4-D-Glu",[2],Yes
same,Detected auxin conjugates: Dicamba-Asp,[3],No
same,Detected auxin conjugates: Dicamba-Glu,[3],No
B2,Detected auxin conjugates: IAA-Asp,[1],Yes
same,Detected auxin conjugates: IAA-Glu,[1],Yes
same,"Detected auxin conjugates: 2,4-D-Asp",[2],Yes
same,"Detected auxin conjugates: 2,4-D-Glu",[2],Yes
same,Detected auxin conjugates: Dicamba-Asp,[3],No
same,Detected auxin conjugates: Dicamba-Glu,[3],No
B3,Detected auxin conjugates: IAA-Asp,[1],No
same,Detected auxin conjugates: IAA-Glu,[1],No
same,"Detected auxin conjugates: 2,4-D-Asp",[2],No
same,"Detected auxin conjugates: 2,4-D-Glu",[2],No
same,Detected auxin conjugates: Dicamba-Asp,[3],No
same,Detected auxin conjugates: Dicamba-Glu,[3],No
B4,Detected auxin conjugates: IAA-Asp,[1],Yes
same,Detected auxin conjugates: IAA-Glu,[1],No
same,"Detected auxin conjugates: 2,4-D-Asp",[2],No
same,"Detected auxin conjugates: 2,4-D-Glu",[2],No
same,Detected auxin conjugates: Dicamba-Asp,[3],No
same,Detected auxin conjugates: Dicamba-Glu,[3],No
B5,Detected auxin conjugates: IAA-Asp,[1],Yes
same,Detected auxin conjugates: IAA-Glu,[1],Yes
same,"Detected auxin conjugates: 2,4-D-Asp",[2],Yes
same,"Detected auxin conjugates: 2,4-D-Glu",[2],Yes
same,Detected auxin conjugates: Dicamba-Asp,[3],No
same,Detected auxin conjugates: Dicamba-Glu,[3],No
B6,Detected auxin conjugates: IAA-Asp,[1],Yes
same,Detected auxin conjugates: IAA-Glu,[1],No
same,"Detected auxin conjugates: 2,4-D-Asp",[2],Yes
same,"Detected auxin conjugates: 2,4-D-Glu",[2],Yes
same,Detected auxin conjugates: Dicamba-Asp,[3],No
same,Detected auxin conjugates: Dicamba-Glu,[3],No
